# ± gives the uncertainty stated by the source.
# B1: PMS1 protein homolog 1, residues 572 to 637; numbered along this chain, P54277 (parent)
# chain: KKPMSASALFVQDHRPQFLIENPKTSLEDATLQIEELWKTLSEEEKLKYEEKATKDLERYNSQMKR
# Variants of: B1
# Assay: abundance fitness (aPCA) (normalised: wild type 0, dead -1); higher = more abundant; growth selection in yeast, the domain comes from the species named
# Details: Homo sapiens
row,Variant,abundance fitness
1,KKPMSASALKVQDHRPQFLIENPKTSLEDATLQIEELWKTLSEEEKLKYEEKATKDLERYNSQMKR [F10K],-0.368 ± 0.11
2,KKPMSASARFVQDHRPQFLIENPKTSLEDATLQIEELWKTLSEEEKLKYEEKATKDLERYNSQMKR [L9R],-0.017 ± 0.076
3,KKPMSASAYFVQDHRPQFLIENPKTSLEDATLQIEELWKTLSEEEKLKYEEKATKDLERYNSQMKR [L9Y],-0.155 ± 0.17
4,KKPMSASALFVQDHRPQFLIENPKTSLEDATLQIEELWKTLSSEEKLKYEEKATKDLERYNSQMKR [E43S],0 ± 0.051
5,KKPMSASALFVQDHRPQFLIENPKTSLEDATLQIEELWKTLSEEEKLKYEDKATKDLERYNSQMKR [E51D],-0.072 ± 0.12
6,KKPMSASALFVQDHRPQFLIENPKTALEDATLQIEELWKTLSEEEKLKYEEKATKDLERYNSQMKR [S26A],-0.229 ± 0.063
7,KKPMSASALFVQDHRPQFLIENPKTLLEDATLQIEELWKTLSEEEKLKYEEKATKDLERYNSQMKR [S26L],-0.538 ± 0.053
8,KKPMSASALFVQDHRPQFLIENPKTDLEDATLQIEELWKTLSEEEKLKYEEKATKDLERYNSQMKR [S26D],-0.102 ± 0.11
9,KKPMSASALFVQDHRPQFLIENPKTSLEDATLQIEELWKTLSEEEKLKYEEKATKDLTRYNSQMKR [E58T],-0.155 ± 0.065
10,KKPMSASALFVQDHRPQFLIENPKTSLEDATLQIEELWKTLSEEEKLKYEEKATKDLCRYNSQMKR [E58C],-0.18 ± 0.13
11,KKPMSASALFVQDHRPQFLIENPKTSLEDATLQIEELWKTLSEEEKLKYEEKATKDLERYNNQMKR [S62N],0.017 ± 0.12
12,KKPMSASALFVQDHRPQFLIENPKTSLEDATLQIEELWKTLSEEEKLKYEEKATKDLERYNEQMKR [S62E],-0.035 ± 0.11
13,KKPMSASALFVQDHRPQFLIENPKTSLEDATLQIEELWKTLSEEEKLKYEEKATKDLERYNKQMKR [S62K],0.049 ± 0.078
14,KKPMSASALFVQDHRPQFLIENPKTSLEDATLQIEELWKTLSEEEKLKYEEKATKDLERYNQQMKR [S62Q],-0.027 ± 0.085
15,KKPMSASALFVQDHRPQFLIENPKASLEDATLQIEELWKTLSEEEKLKYEEKATKDLERYNSQMKR [T25A],0.042 ± 0.081
16,KKPMSASALFVQDHRPQFLIENPKTSLEDATLQIEELWKTLSEEEKLKYEEKATKGLERYNSQMKR [D56G],-0.144 ± 0.1
17,KKPMSASALFVQDHRPQFLIENPKTSLEDATLQIEELWKTLSEEEKLKYEEKATKWLERYNSQMKR [D56W],-0.258 ± 0.24
18,KKPMSASALFVQDHRPQFLIENPKTSLEDATLQIEELWKTLSEEEKLKYEEKATKPLERYNSQMKR [D56P],-0.423 ± 0.087
19,KKPMSASALFVQDHRPQFLIENPKTSLEDATLQIEELWKTLSEEEKLKYEEKATKHLERYNSQMKR [D56H],-0.172 ± 0.12
20,KKPMSASALFVQDHRPQFLIENPKTSLEDATLQIEELWKTLSEEEKLKYEEKATKNLERYNSQMKR [D56N],-0.283 ± 0.11
21,KKPMSASALFVQDHRPQFLIENPKTSLEDATLQIEELWKTLSEEEKKKYEEKATKDLERYNSQMKR [L47K],-0.235 ± 0.16

row,Variant,abundance fitness
1,KKPMSASALFVQDHRPQFLIENPKTSLEDATGQIEELWKTLSEEEKLKYEEKATKDLERYNSQMKR [L32G],-0.261 ± 0.092
2,KKPMSASALFVQDHRPQFLIENPKTSLEDATPQIEELWKTLSEEEKLKYEEKATKDLERYNSQMKR [L32P],-0.349 ± 0.13
3,KKPMSASALFVQDHRPQFLIENPKTSAEDATLQIEELWKTLSEEEKLKYEEKATKDLERYNSQMKR [L27A],-0.127 ± 0.18
4,KKPMSASALFVQDHRPQFLIENPKTSQEDATLQIEELWKTLSEEEKLKYEEKATKDLERYNSQMKR [L27Q],-0.532 ± 0.31
5,KKPMSASALFVQDHRPQFLIENPKTSMEDATLQIEELWKTLSEEEKLKYEEKATKDLERYNSQMKR [L27M],-0.089 ± 0.17
6,KKPMSASALFVQDHRPQFLIENPKTSSEDATLQIEELWKTLSEEEKLKYEEKATKDLERYNSQMKR [L27S],-0.048 ± 0.14
7,KKPMSASALFVQDHRPQFLIENPKTSLEDATLQIEELWKTLSEEEKLKYEEKATKDLERYTSQMKR [N61T],-0.029 ± 0.094
8,KKPMSASALFVQDHRPQFLIENPKTSLEDATLQIEELWKTLSEEEKLKYEEKATKDLERYWSQMKR [N61W],-0.489 ± 0.075
9,KKPMSASALFVQDHRPQFLIENPKTSLEDATLQIEELWKTLSEEEKLKYEEKATKDLERYLSQMKR [N61L],-0.333 ± 0.055
10,FKPMSASALFVQDHRPQFLIENPKTSLEDATLQIEELWKTLSEEEKLKYEEKATKDLERYNSQMKR [K1F],-0.498 ± 0.26
11,KKPMSASALFVQDHRPQFLIENPKTSLEDATLQIEELWKTLSEEEKLKYEEGATKDLERYNSQMKR [K52G],-0.213 ± 0.068
12,KKPMSASALFVQDHRPQFLIENPKTSLEDGTLQIEELWKTLSEEEKLKYEEKATKDLERYNSQMKR [A30G],-0.401 ± 0.14
13,KKAMSASALFVQDHRPQFLIENPKTSLEDATLQIEELWKTLSEEEKLKYEEKATKDLERYNSQMKR [P3A],-0.464 ± 0.19
14,KKSMSASALFVQDHRPQFLIENPKTSLEDATLQIEELWKTLSEEEKLKYEEKATKDLERYNSQMKR [P3S],-0.605 ± 0.34
15,KKPMSASALFVADHRPQFLIENPKTSLEDATLQIEELWKTLSEEEKLKYEEKATKDLERYNSQMKR [Q12A],0.258 ± 0.27
16,KKPMSASALFVQDHRPQFLIENPKTSLEDATLQIEELWKTLSEEEKLKYEEKNTKDLERYNSQMKR [A53N],-0.363 ± 0.12
17,KKPMSASALFVQDHRPQFLIENPKTSLEDATLQIEELWKTLSEEEKLKYEEKMTKDLERYNSQMKR [A53M],-0.387 ± 0.083
18,KKPMSASALFVQDHRPQFLIENPKTSLEDATLQIEELWKTLSEEEKLKYEEKATKDLERINSQMKR [Y60I],-0.315 ± 0.15
19,KKPMSASALFIQDHRPQFLIENPKTSLEDATLQIEELWKTLSEEEKLKYEEKATKDLERYNSQMKR [V11I],-0.432 ± 0.23
20,KKPMSASALFVQDHRPQFLIENPKTSLEDATLQIEELWKTLSEEEKLKYEEKAKKDLERYNSQMKR [T54K],0.046 ± 0.096

# Reference: the Human Domainome abundance scans (Beltran et al. 2025)
